Legend:
[1] = target: vaccinia virus K3L protein, P18378
[2] = target: NS5A 1b-4 (untagged, expressed from pYES-NS5A 1b-4)
[3] = target: NS5A 1b-5 (untagged, expressed from pYES-NS5A 1b-5)
[4] = target: NS5A 1b-2 (untagged, expressed from pYES-NS5A 1b-2)
[5] = target: T1, GST-NS5A (HCV-1a NS5A aa 1-427 fused in frame with glutathione-S-transferase), P26664
T1 chain: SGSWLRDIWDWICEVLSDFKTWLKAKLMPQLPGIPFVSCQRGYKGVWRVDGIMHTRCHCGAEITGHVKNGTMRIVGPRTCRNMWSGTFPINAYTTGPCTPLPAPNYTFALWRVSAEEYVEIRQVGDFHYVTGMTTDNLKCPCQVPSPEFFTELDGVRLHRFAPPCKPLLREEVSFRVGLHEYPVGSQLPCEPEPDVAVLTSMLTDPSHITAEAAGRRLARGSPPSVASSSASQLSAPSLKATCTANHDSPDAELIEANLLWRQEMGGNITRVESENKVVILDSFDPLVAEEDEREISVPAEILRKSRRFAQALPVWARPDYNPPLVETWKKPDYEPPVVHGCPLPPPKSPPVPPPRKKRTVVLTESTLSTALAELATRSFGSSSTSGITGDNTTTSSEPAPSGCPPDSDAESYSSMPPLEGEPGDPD

[6] = target: GST (glutathione-S-transferase alone) [GST: P08515]
[7] = target: NS5A 1b-wt (untagged, expressed from pYES-NS5A 1b-wt)
[8] = target: T2, NS5A 1a-wt (full-length NS5A from IFN-resistant HCV-1a, untagged), P26664
T2 chain: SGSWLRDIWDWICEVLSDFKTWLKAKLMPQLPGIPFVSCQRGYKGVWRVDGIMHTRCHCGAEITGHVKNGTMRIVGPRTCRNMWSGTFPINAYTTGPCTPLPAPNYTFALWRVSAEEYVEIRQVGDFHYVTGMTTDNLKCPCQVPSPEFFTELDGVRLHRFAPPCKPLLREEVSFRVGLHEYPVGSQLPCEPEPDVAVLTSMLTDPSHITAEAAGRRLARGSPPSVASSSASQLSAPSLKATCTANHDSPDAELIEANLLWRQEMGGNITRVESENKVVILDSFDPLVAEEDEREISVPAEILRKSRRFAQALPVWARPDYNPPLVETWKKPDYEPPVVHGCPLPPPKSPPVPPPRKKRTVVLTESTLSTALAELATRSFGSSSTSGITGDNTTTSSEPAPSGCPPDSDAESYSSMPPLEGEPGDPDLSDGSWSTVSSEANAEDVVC

B1: wild type human PKR, full length (aa 1-551) (protein)
chain: MAGDLSAGFFMEELNTYRQKQGVVLKYQELPNSGPPHDRRFTFQVIIDGREFPEGEGRSKKEAKNAAAKLAVEILNKEKKAVSPLLLTTTNSSEGLSMGNYIGLINRIAQKKRLTVNYEQCASGVHGPEGFHYKCKMGQKEYSIGTGSTKQEAKQLAAKLAYLQILSEETSVKSDYLSSGSFATTCESQSNSLVTSTLASESSSEGDFSADTSEINSNSDSLNSSSLLMNGLRNNQRKAKRSLAPRFDLPDMKETKYTVDKRFGMDFKEIELIGSGGFGQVFKAKHRIDGKTYVIKRVKYNNEKAEREVKALAKLDHVNIVHYNGCWDGFDYDPETSDDSLESSDYDPENSKNSSRSKTKCLFIQMEFCDKGTLEQWIEKRRGEKLDKVLALELFEQITKGVDYIHSKKLIHRDLKPSNIFLVDTKQVKIGDFGLVTSLKNDGKRTRSKGTLRYMSPEQISSQDYGKEVDLYALGLILAELLHVCDTAFETSKFFTDLRDGIISDIFDKKEKTLLQKLLSKKPEDRPNTSEILRTLTVWKKSPEKNERHTC
**Q.** Which results are given for B1?
**A.** level of basally phosphorylated eIF-2α relative to total (isoelectric focusing, densitometry) [1]: K3L, 11.7% (lane 3); eIF-2α serine 51 phosphorylation in yeast RY1-1 (isoelectric focusing immunoblot) [2]: possessed predominantly the hyper-phosphorylated isoform of eIF-2α, similar to the vector control strain; eIF-2α serine 51 phosphorylation in yeast RY1-1 (isoelectric focusing immunoblot) [3]: possessed predominantly the hyper-phosphorylated isoform of eIF-2α, similar to the vector control strain; eIF-2α serine 51 phosphorylation in yeast RY1-1 (isoelectric focusing immunoblot) [4]: possessed predominantly the hyper-phosphorylated isoform of eIF-2α, similar to the vector control strain; PKR autophosphorylation and phosphorylation of an exogenous histone substrate, in vitro kinase assay [5]: as little as 0.2 pmol of NS5A can inhibit 1.8 pmol of PKR; PKR autophosphorylation and phosphorylation of an exogenous histone substrate, in vitro kinase assay [6]: Equal molar levels of GST had no effect upon PKR activity; eIF-2α serine 51 phosphorylation in yeast RY1-1 (isoelectric focusing immunoblot) [7]: exhibited a significant reduction in the level of hyper-phosphorylated eIF-2α; level of basally phosphorylated eIF-2α relative to total (isoelectric focusing, densitometry) [8]: NS5A, 9.8% (lane 2); level of unphosphorylated eIF-2α in yeast RY1-1 over vector control [8]: approximately an 11-fold increase in the level of unphosphorylated eIF-2α
